# In PMC2713992 (Nature immunology, 2009):
# Biological target: complement component 3b (C3b) (human, UniProt P01024 23-667; P01024 749-1663)
# Assay: SPR
# Chain of complement component 3b (C3b) (P01024 23-667, chain 1 of 2): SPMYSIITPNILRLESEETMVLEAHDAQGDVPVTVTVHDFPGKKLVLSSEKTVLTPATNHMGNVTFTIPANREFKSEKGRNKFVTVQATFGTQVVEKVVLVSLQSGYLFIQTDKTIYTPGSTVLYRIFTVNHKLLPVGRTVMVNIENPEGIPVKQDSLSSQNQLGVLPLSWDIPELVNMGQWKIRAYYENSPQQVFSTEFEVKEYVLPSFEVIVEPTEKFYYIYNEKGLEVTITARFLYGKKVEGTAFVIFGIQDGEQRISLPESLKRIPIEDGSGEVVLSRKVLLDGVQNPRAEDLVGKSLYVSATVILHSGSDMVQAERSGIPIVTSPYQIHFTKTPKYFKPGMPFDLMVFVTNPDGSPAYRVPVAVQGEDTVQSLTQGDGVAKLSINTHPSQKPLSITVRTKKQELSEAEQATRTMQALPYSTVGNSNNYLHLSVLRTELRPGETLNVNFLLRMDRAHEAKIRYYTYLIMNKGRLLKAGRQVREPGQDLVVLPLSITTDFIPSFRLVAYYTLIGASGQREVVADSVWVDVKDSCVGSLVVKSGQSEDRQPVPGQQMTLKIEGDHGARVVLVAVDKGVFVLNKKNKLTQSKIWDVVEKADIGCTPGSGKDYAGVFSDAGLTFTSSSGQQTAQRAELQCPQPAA
# Chain of complement component 3b (C3b) (P01024 749-1663, chain 2 of 2): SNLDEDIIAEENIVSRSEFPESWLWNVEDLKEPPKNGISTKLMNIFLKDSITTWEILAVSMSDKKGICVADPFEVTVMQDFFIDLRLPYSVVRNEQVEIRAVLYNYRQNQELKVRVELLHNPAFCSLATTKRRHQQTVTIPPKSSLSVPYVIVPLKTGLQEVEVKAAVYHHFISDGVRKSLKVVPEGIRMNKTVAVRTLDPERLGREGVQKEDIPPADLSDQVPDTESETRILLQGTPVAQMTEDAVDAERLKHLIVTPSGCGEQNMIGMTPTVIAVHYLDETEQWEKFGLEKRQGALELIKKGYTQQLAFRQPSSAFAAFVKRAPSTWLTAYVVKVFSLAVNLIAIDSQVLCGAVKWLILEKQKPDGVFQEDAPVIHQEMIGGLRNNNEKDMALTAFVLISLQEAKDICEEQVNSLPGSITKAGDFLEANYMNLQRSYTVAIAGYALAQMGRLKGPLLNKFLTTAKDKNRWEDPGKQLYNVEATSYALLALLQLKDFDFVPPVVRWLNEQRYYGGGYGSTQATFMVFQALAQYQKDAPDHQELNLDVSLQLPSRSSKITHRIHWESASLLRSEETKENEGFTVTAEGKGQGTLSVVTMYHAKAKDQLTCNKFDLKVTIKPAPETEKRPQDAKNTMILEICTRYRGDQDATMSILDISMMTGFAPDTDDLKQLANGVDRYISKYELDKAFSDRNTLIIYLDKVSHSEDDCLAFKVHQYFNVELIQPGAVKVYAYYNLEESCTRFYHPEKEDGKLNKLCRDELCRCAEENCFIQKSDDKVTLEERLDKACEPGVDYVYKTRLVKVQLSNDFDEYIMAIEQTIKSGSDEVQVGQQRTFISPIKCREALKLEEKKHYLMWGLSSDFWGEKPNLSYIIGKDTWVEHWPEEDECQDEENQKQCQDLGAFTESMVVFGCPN
binder,measurement,value
"FH(1–4), recombinant N-terminal four CCP domains (CCP1-4, residues 1–246) of human factor H (domain or fragment, UniProt P08603 19-264, looked up) EDCNELPPRRNTEILTGSWSDQTYPEGTQAIYKCRPGYRSLGNVIMVCRKGEWVALNPLRKCQKRPCGHPGDTPFGTFTLTGGNVFEYGVKAVYTCNEGYQLLGEINYRECDTDGWTNDIPICEVVKCLPVTAPENGKIVSSAMEPDREYHFGQAVRFVCNSGYKIEGDEEMHCSDDGFWSKEKPKCVEISCKSPDVINGSPISQKIIYKENERFQYKCNMGYEYSERGDAVCTESGWRPLPSCEE",Kd,11 ± 2 µM
same,stoichiometry N,1
